Holding throughout (test): BLI; Octet RED96; client biotinylated and loaded on streptavidin sensors; Spy or Spy variant in solution at 0.25, 0.5, 1, 1.5 and 2 μM; 40 mM HEPES, 150 mM NaCl, pH 7.5; Kd calculated as koff/kon
Holding throughout (settings): both partners purified

One experiment concerns the target T1, Spy_(R50D) (UniProt P77754 24-161, R50D).
T1 construct: source: E. coli BL21 (DE3), purified (Ni-NTA, cation exchange, SEC); not shown: His6, N-terminal, cleaved; SUMO, N-terminal, cleaved
T1 sequence (looked up): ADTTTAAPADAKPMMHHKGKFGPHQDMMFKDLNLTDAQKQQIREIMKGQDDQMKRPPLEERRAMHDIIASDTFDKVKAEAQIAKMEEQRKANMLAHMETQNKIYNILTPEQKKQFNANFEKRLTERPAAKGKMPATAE
The procedure, abridged:
(§1)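 Biolayer interferometry used an Octet RED96: client proteins biotinylated with EZ-link NHS-biotin (1:1 molar ratio) were loaded on streptavidin sensors, dipped into 40 mM HEPES, 150 mM NaCl, pH 7.5 containing Spy protein at 0.25, 0.5, 1, 1.5 and 2 μM, then moved to Spy-free buffer. Wavelength-shift association and dissociation curves were fitted in SigmaPlot 12.0, giving observed association rate and koff. kon came from observed rate versus Spy concentration; Kd was koff/kon.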

The target of the next experiment is T2, Spy_(R43D) (UniProt P77754 24-161, R43D).
T2 construct: source: E. coli BL21 (DE3), purified (Ni-NTA, cation exchange, SEC); not shown: His6, N-terminal, cleaved; SUMO, N-terminal, cleaved
T2 sequence (looked up): T1 sequence (looked up) with R43D, D50R
Summed up:
as §1

The next experiment concerns the target T3, Spy_(R89D) (UniProt P77754 24-161, R89D).
T3 construct: source: E. coli BL21 (DE3), purified (Ni-NTA, cation exchange, SEC); not shown: His6, N-terminal, cleaved; SUMO, N-terminal, cleaved
T3 sequence (looked up): T1 sequence (looked up) with D50R, R89D
Summed up: as §1

The target of another experiment is T4, Spy_(D26K R61D R62D) (UniProt P77754 24-161, D26K | R61D | R62D).
T4 construct: source: E. coli BL21 (DE3), purified (Ni-NTA, cation exchange, SEC); not shown: His6, N-terminal, cleaved; SUMO, N-terminal, cleaved
T4 sequence (looked up): T1 sequence (looked up) with D26K, D50R, R61D, R62D
Summed up:
as §1

The target of another experiment is T5, Spy_(R89D D26K) (UniProt P77754 24-161, D26K | R89D).
T5 construct: also called D26K R89D; source: E. coli BL21 (DE3), purified (Ni-NTA, cation exchange, SEC); not shown: His6, N-terminal, cleaved; SUMO, N-terminal, cleaved
T5 sequence (looked up): T1 sequence (looked up) with D26K, D50R, R89D
The procedure, abridged: as §1

In another experiment the target is T6, Spy_(K75D) (UniProt P77754 24-161, K75D).
T6 construct: also called control protein; source: E. coli BL21 (DE3), purified (Ni-NTA, cation exchange, SEC); not shown: His6, N-terminal, cleaved; SUMO, N-terminal, cleaved
T6 sequence (looked up): T1 sequence (looked up) with D50R, K75D
The procedure, abridged: as §1

Another experiment addresses T7, Spy D26K K75D (UniProt P77754 24-161, D26K | K75D).
T7 construct: source: E. coli BL21 (DE3), purified (Ni-NTA, cation exchange, SEC); not shown: His6, N-terminal, cleaved; SUMO, N-terminal, cleaved
T7 sequence (looked up): T1 sequence (looked up) with D26K, D50R, K75D
The procedure, abridged:
as §1

For the next experiment, the target named is T8, Spy_(K121D R122D) (UniProt P77754 24-161, K121D | R122D).
T8 construct: source: E. coli BL21 (DE3), purified (Ni-NTA, cation exchange, SEC); not shown: His6, N-terminal, cleaved; SUMO, N-terminal, cleaved
T8 sequence (looked up): T1 sequence (looked up) with D50R, K121D, R122D
Summed up:
as §1

Residue numbers refer to the chain shown, from its start. Names may count otherwise.

B1: Im7 H40W L53A I54A (natural protein)
chain: MELKNSISDYTEAEFVQLLKEIEKENVAATDDVLDVLLEWFVKITEHPDGTDAAYYPSDNRDDSPEGIVKEIKEWRAANGKPGFKQG
modifications: biotin (EZ-link NHS-biotin, 1:1 molar ratio of biotin to protein)
notes: Im7 (colicin E7 immunity protein) with H40W L53A I54A; Spy was made with an N-terminal His6-SUMO tag that was cleaved; also called Im7AAW; partially folded client; source: purified by a similar procedure to Spy
By koff is commonly meant the rate constant with which the complex falls apart. Turning to B1, the dissociation rate constant (koff) is 0.543 s⁻¹ in the experiment with Spy_(R50D); 0.533 s⁻¹ with Spy_(R43D); 0.105 s⁻¹ with Spy_(R89D); 0.475 s⁻¹ with Spy_(D26K R61D R62D); 0.2 s⁻¹ in the experiment with Spy_(R89D D26K); 0.183 s⁻¹ with Spy_(K75D). In addition, the off-rate (koff) in the experiment with Spy D26K K75D was 0.0595 s⁻¹; with Spy_(K121D R122D) it was 0.46 s⁻¹.

Source of the values: publication PMC9122904, “Insights into the client protein release mechanism of the ATP-independent chaperone Spy” (Nature Communications, 2022).
